Reference: article PMC9352680, “A comprehensive thermodynamic model for RNA binding by the Saccharomyces cerevisiae Pumilio protein PUF4”

B1: Id_iii_S2_P3E.6_K3.2_C3.3_[T-3A]_H3.2_A3.1_F3.1_T3.2 (ssRNA)
RNA: UUUGAUUAAUAUGAUAUCGUUCUUUCUACUUAUAUAUAUAUUCUUUCUCGAUAUCAUAUUAAUCUUU
B2: Id_iii_S2_P3E.6_K3.2_C3.3_H3.2_A3.1_F3.1_T3.2_[A10T] (ssRNA)
RNA: UUUGAUUAAUAUGAUAUCGUUCUUUCUUCUUAUAUAUAUUUUCUUUCUCGAUAUCAUAUUAAUCUUU
B3: Id_iii_S2_P3E.9_K3.5_C3.3_[T-1A]_H3.1_A3.2_F3.2_T3.2 (ssRNA)
RNA: UUUGAUUAAUAUGAUAUCGUUCUUUCUUCAUGUAAAAAUAUUCUUUCUCGAUAUCAUAUUAAUCUUU
B4: Id_iii_S2_P3E.7_K3.3_C3.3_H3.3_A3.1_F3.1_T3.2_[A10C] (ssRNA)
RNA: UUUGAUUAAUAUGAUAUCGUUCUUUCUUCUACACUAUAUCUUCUUUCUCGAUAUCAUAUUAAUCUUU
B5: Id_iii_S2_P3E.9_K3.5_C3.3_[T-1C]_H3.1_A3.2_F3.2_T3.2 (ssRNA)
RNA: UUUGAUUAAUAUGAUAUCGUUCUUUCUUCCUGUAAAAAUAUUCUUUCUCGAUAUCAUAUUAAUCUUU
B6: Id_iii_S2_P3E.6_K3.2_C3.3_[T-1C]_H3.2_A3.1_F3.1_T3.2 (ssRNA)
RNA: UUUGAUUAAUAUGAUAUCGUUCUUUCUUCCUAUAUAUAUAUUCUUUCUCGAUAUCAUAUUAAUCUUU
B7: Id_iii_S2_P3E.7_K3.3_C3.3_[T-1C]_H3.3_A3.1_F3.1_T3.2 (ssRNA)
RNA: UUUGAUUAAUAUGAUAUCGUUCUUUCUUCCACACUAUAUAUUCUUUCUCGAUAUCAUAUUAAUCUUU
B8: Id_iii_S2_P3E.7_K3.3_C3.3_[T-1G]_H3.3_A3.1_F3.1_T3.2 (ssRNA)
RNA: UUUGAUUAAUAUGAUAUCGUUCUUUCUUCGACACUAUAUAUUCUUUCUCGAUAUCAUAUUAAUCUUU
B9: Id_iii_S2_P3E.6_K3.2_C3.3_[C-2T]_H3.2_A3.1_F3.1_T3.2 (ssRNA)
RNA: UUUGAUUAAUAUGAUAUCGUUCUUUCUUUUUAUAUAUAUAUUCUUUCUCGAUAUCAUAUUAAUCUUU
B10: Id_iii_S2_P3E.9_K3.5_C3.3_H3.1_A3.2_F3.2_T3.2_[A10G] (ssRNA)
RNA: UUUGAUUAAUAUGAUAUCGUUCUUUCUUCUUGUAAAAAUGUUCUUUCUCGAUAUCAUAUUAAUCUUU
B11: Id_iii_S2_P3E.6_K3.2_C3.3_[T-1A]_H3.2_A3.1_F3.1_T3.2 (ssRNA)
RNA: UUUGAUUAAUAUGAUAUCGUUCUUUCUUCAUAUAUAUAUAUUCUUUCUCGAUAUCAUAUUAAUCUUU
B12: Id_iii_S2_P3E.8_K3.4_C3.3_[T-3A]_H3.1_A3.2_F3.1_T3.2 (ssRNA)
RNA: UUUGAUUAAUAUGAUAUCGUUCUUUCUACUUGUAAAUAUAUUCUUUCUCGAUAUCAUAUUAAUCUUU
B13: Id_iii_S2_P3E.9_K3.5_C3.3_[T-1G]_H3.1_A3.2_F3.2_T3.2 (ssRNA)
RNA: UUUGAUUAAUAUGAUAUCGUUCUUUCUUCGUGUAAAAAUAUUCUUUCUCGAUAUCAUAUUAAUCUUU
B14: Id_iii_S2_P3E.6_K3.2_C3.3_H3.2_A3.1_F3.1_T3.2_[T9A] (ssRNA)
RNA: UUUGAUUAAUAUGAUAUCGUUCUUUCUUCUUAUAUAUAAAUUCUUUCUCGAUAUCAUAUUAAUCUUU
B15: Id_iii_S2_P3E.6_K3.2_C3.3_H3.2_A3.1_F3.1_T3.2_[T9C] (ssRNA)
RNA: UUUGAUUAAUAUGAUAUCGUUCUUUCUUCUUAUAUAUACAUUCUUUCUCGAUAUCAUAUUAAUCUUU
B16: Id_iii_S2_P3E.7_K3.3_C3.3_[T-3A]_H3.3_A3.1_F3.1_T3.2 (ssRNA)
RNA: UUUGAUUAAUAUGAUAUCGUUCUUUCUACUACACUAUAUAUUCUUUCUCGAUAUCAUAUUAAUCUUU
B17: Id_iii_S2_P3E.7_K3.3_C3.3_[C-2G]_H3.3_A3.1_F3.1_T3.2 (ssRNA)
RNA: UUUGAUUAAUAUGAUAUCGUUCUUUCUUGUACACUAUAUAUUCUUUCUCGAUAUCAUAUUAAUCUUU
B18: Id_iii_S2_P3E.8_K3.4_C3.3_[C-2A]_H3.1_A3.2_F3.1_T3.2 (ssRNA)
RNA: UUUGAUUAAUAUGAUAUCGUUCUUUCUUAUUGUAAAUAUAUUCUUUCUCGAUAUCAUAUUAAUCUUU
B19: Id_iii_S2_P3E.7_K3.3_C3.3_[T-3G]_H3.3_A3.1_F3.1_T3.2 (ssRNA)
RNA: UUUGAUUAAUAUGAUAUCGUUCUUUCUGCUACACUAUAUAUUCUUUCUCGAUAUCAUAUUAAUCUUU
B20: Id_iii_S2_P3E.8_K3.4_C3.3_[T-3C]_H3.1_A3.2_F3.1_T3.2 (ssRNA)
RNA: UUUGAUUAAUAUGAUAUCGUUCUUUCUCCUUGUAAAUAUAUUCUUUCUCGAUAUCAUAUUAAUCUUU
B21: Id_iii_S2_P4E.5_K4.1_C4.3_[T-3C]_H4.1_A4.1_F4.1_T4.2 (ssRNA)
RNA: UUUGAUUAAUAUGAUAUCGUUCUUUCUCCUUGUAUAUUAGUUUCUUUCUCGAUAUCAUAUUAAUCUUU
B22: Id_iii_S2_P4E.5_K4.1_C4.3_[C-2G]_H4.1_A4.1_F4.1_T4.2 (ssRNA)
RNA: UUUGAUUAAUAUGAUAUCGUUCUUUCUUGUUGUAUAUUAGUUUCUUUCUCGAUAUCAUAUUAAUCUUU
B23: Id_iii_S2_P4E.5_K4.1_C4.3_[T-1C]_H4.1_A4.1_F4.1_T4.2 (ssRNA)
RNA: UUUGAUUAAUAUGAUAUCGUUCUUUCUUCCUGUAUAUUAGUUUCUUUCUCGAUAUCAUAUUAAUCUUU
B24: Id_iii_S2_P4E.5_K4.1_C4.3_[T-1G]_H4.1_A4.1_F4.1_T4.2 (ssRNA)
RNA: UUUGAUUAAUAUGAUAUCGUUCUUUCUUCGUGUAUAUUAGUUUCUUUCUCGAUAUCAUAUUAAUCUUU
B25: Id_iii_S2_P4E.5_K4.1_C4.3_H4.1_A4.1_F4.1_T4.2_[T11C] (ssRNA)
RNA: UUUGAUUAAUAUGAUAUCGUUCUUUCUUCUUGUAUAUUAGCUUCUUUCUCGAUAUCAUAUUAAUCUUU
B26: Id_iii_S2_P4E.5_K4.1_C4.3_H4.1_A4.1_F4.1_T4.2_[G10C] (ssRNA)
RNA: UUUGAUUAAUAUGAUAUCGUUCUUUCUUCUUGUAUAUUACUUUCUUUCUCGAUAUCAUAUUAAUCUUU
B27: Id_iii_S2_P4E.6_K4.2_C4.3_[C-2G]_H4.2_A4.1_F4.1_T4.2 (ssRNA)
RNA: UUUGAUUAAUAUGAUAUCGUUCUUUCUUGUUAUAUAUUAGUUUCUUUCUCGAUAUCAUAUUAAUCUUU
B28: Id_iii_S2_P4E.5_K4.1_C4.3_[C-2T]_H4.1_A4.1_F4.1_T4.2 (ssRNA)
RNA: UUUGAUUAAUAUGAUAUCGUUCUUUCUUUUUGUAUAUUAGUUUCUUUCUCGAUAUCAUAUUAAUCUUU
B29: Id_iii_S2_P4E.6_K4.2_C4.3_[T-3C]_H4.2_A4.1_F4.1_T4.2 (ssRNA)
RNA: UUUGAUUAAUAUGAUAUCGUUCUUUCUCCUUAUAUAUUAGUUUCUUUCUCGAUAUCAUAUUAAUCUUU
B30: Id_iii_S2_P4E.5_K4.1_C4.3_[C-2A]_H4.1_A4.1_F4.1_T4.2 (ssRNA)
RNA: UUUGAUUAAUAUGAUAUCGUUCUUUCUUAUUGUAUAUUAGUUUCUUUCUCGAUAUCAUAUUAAUCUUU
B31: Id_iii_S2_P4E.5_K4.1_C4.3_H4.1_A4.1_F4.1_T4.2_[G10T] (ssRNA)
RNA: UUUGAUUAAUAUGAUAUCGUUCUUUCUUCUUGUAUAUUAUUUUCUUUCUCGAUAUCAUAUUAAUCUUU
B32: Id_iii_S2_P4E.5_K4.1_C4.3_H4.1_A4.1_F4.1_T4.2_[G10A] (ssRNA)
RNA: UUUGAUUAAUAUGAUAUCGUUCUUUCUUCUUGUAUAUUAAUUUCUUUCUCGAUAUCAUAUUAAUCUUU

Each binder was assayed against T1, PUF4 RNA-binding domain (Saccharomyces cerevisiae, UniProt P25339 537-888) (assay: Mg; RNA-MaP; 20 mM Na-HEPES pH 7.4, 30 mM KOAc, 0.75 mM MgCl2, 0.1% Tween-20, 5% glycerol, 0.1 mg/mL BSA, 2 mM DTT; 25 C; 0.0125-409.6 nM protein). Conditions: tags: N-His6-TEV cleaved; C-SNAP kept, Cy3B-labelled; label: tethered on chip by stalled RNA polymerase.
T1 sequence: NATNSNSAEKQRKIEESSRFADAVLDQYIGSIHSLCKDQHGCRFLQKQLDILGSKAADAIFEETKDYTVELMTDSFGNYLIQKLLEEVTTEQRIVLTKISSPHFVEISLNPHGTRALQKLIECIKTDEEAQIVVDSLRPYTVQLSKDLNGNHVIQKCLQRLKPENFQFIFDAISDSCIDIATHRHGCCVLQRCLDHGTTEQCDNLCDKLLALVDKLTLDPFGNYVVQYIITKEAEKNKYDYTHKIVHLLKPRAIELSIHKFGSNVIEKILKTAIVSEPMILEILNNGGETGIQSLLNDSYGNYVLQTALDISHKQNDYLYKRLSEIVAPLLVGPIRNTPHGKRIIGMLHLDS
For B1, the Kd was 91.2 nM.
With B2 the Kd was 43.5 nM.
B3 showed a Kd of 28.6 nM.
B4 showed a Kd of 495 nM.
In the case of B5, the Kd is reported as 11.9 nM.
Work on B6 yielded a Kd of 28.7 nM.
B7 gave a Kd of 321 nM.
Binder B8 has a Kd of 430 nM.
B9 gave a Kd of 111 nM.
For B10, the Kd was 661 nM.
B11 gave a Kd of 122 nM.
For B12, the Kd was 3.74 nM.
B13 was tested, and the Kd was 32.2 nM.
With B14 the Kd was 321 nM.
B15 showed a Kd of 168 nM.
B16 was tested, and the Kd was 213 nM.
Work on B17 yielded a Kd of 0.454 nM.
B18 was tested, and the Kd was 26.3 nM.
B19 was tested, and the Kd was 156 nM.
In the case of B20, the Kd is reported as 2.54 nM.
UCUCUUUGUUUUGUUAUCUCUU (ssRNA) [Ib_S1_P5E.1_K5.1_C5.1_H5.1_[A4T]_A5.1_[A7G]_F5.1_T5.1] gave a Kd of 426 nM.
B21 showed a Kd of 0.191 nM.
B22 gave a Kd of 0.508 nM.
B23 gave a Kd of 0.205 nM.
In the case of B24, the Kd is reported as 0.201 nM.
Work on B25 yielded a Kd of 0.401 nM.
For B26, the Kd was 0.519 nM.
B27 showed a Kd of 13.3 nM.
For B28, the Kd was 1.08 nM.
B29 showed a Kd of 3.56 nM.
For B30, the Kd was 0.601 nM.
B31 showed a Kd of 0.203 nM.
B32 gave a Kd of 0.37 nM.
For UCUCUUUGUUUUUUUAUCUCUU (ssRNA) [Ib_S1_P5E.1_K5.1_C5.1_H5.1_[A4T]_A5.1_[A7T]_F5.1_T5.1], the Kd was 142 nM.
Work on UCUCUUUGUCUUUUUAUCUCUU (ssRNA) [Ib_S1_P5E.1_K5.1_C5.1_H5.1_[A4C]_A5.1_[A7T]_F5.1_T5.1] yielded a Kd of 113 nM.
